Measured values taken from CN114423789A (ZHEJIANG JIANMAI PHARMACEUTICAL CO LTD, dated 2022).
Values belong to the binder of their own block, whether it stands above or below them.

Tests used:
[1] = target: T1, recombinant human mesothelin (full-length extracellular domain) (human, UniProt Q13421 296-580, limits assumed); assay: ELISA, recombinant human mesothelin coated at 50 ng/well, Fab detected with HRP anti-FLAG
T1 construct: extracellular domain; Bought protein coated on ELISA plates at 50 ng per well; also called 重组人间皮素; 人间皮素(MSLN)蛋白

[2] = target: T1, recombinant human mesothelin …; assay: ELISA, recombinant human mesothelin coated at 50 ng/well, fit to a Langmuir isotherm

T1 sequence (Q13421 other isoform, or with tags, fused parts or gaps limits assumed): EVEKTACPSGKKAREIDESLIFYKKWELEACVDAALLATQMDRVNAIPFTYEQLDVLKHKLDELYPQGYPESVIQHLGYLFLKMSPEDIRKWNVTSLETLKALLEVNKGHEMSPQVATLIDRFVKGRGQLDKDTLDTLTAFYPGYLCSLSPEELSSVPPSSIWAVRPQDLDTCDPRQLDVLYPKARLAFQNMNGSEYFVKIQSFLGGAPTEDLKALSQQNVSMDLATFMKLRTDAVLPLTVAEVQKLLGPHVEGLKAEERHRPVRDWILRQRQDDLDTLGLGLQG

- EC50 [1]: 21 nM
B1: M10 Fab (Fab, V domains shown)
VH: QLVETGGGLVQPGRSLRLSCAASGFTFDDYAMHWVRQAPGKGLEWVSGISWNSGSIGYADSVKGRFTISRDNAKNSLYLQMNSLRAEDTAVYYCARDSGSSGWYGYFQHWGQGTLVTVSS
VL: SYVLTQPPSVSVSPGQTARITCSGDALPKQYAFWYQQKPGQAPVLVIYKDSERPSGIPERFSGSSSGTTVTLTISGVQAEDEADYYCQSADSSATSVIFGGGTKLTVLG
notes: also called Fab克隆M10

- EC50 [2]: 0.2 nM
B2: M10 mAb (anti-human mesothelin monoclonal antibody IgG1) (antibody, V domains shown)
VH: B1 VH
VL: B1 VL
notes: Full human IgG1: the heavy-chain Fd of M10 Fab fused to human IgG1 Fc, about 150 kDa non-reduced; also called 抗间皮素M10 mAb; 抗间皮素单克隆抗体
